# Measured values reported in US8318489B2, “Prostacyclin directed differentiation of cardiomyocytes from human embryonic stem cells” (priority 2005, dated 2012).
# B1: Bmp6: recombinant human Bmp6 (R&D) (protein, UniProt P22004 375-513, looked up)
# Bone morphogenetic protein 6: SASSRRRQQSRNRSTQSQDVARVSSASDYNSSELKTACRKHELYVSFQDLGWQDWIIAPKGYAANYCDGECSFPLNAHMNATNHAIVQTLVHLMNPEYVPKPCCAPTKLNAISVLYFDDNSNVILKKYRNMVVRACGCH
# Test system: hES cells
# Assay: Embryoid body differentiation of hES cells, visual scoring of beating EBs
# Format: cell-based, human
# Settings: growth factor 10 ng/ml added to END2-CM, day 12, compared to END2-CM alone
# Protocol: This procedure describes the formation of embryoid bodies (EB) from collagenase-derived hES cell cultures. After formation the EBs were then exposed to END2 conditioned medium (CM).
# Enzymatically passaged hES cells grown on feeder cells were washed once with PBS^+ and treated with Collagenase IV (1 mg/ml) for 3-4 min at 37° C. The Collagenase IV solution was replaced by DMEM and the cells were mechanically dissociated with a pipette tip. Cells were then harvested using a cell scraper and the cell suspension was transferred to a 50 ml tube (Falcon). Cell clumps were collected by gravity and the supernatant was aspirated. Cells were resuspended in fresh DMEM medium aiming to uniformly disperse the cell clumps in the suspension. An equal volume of the cell suspension was then transferred to ultra low attachment plates (Costar). […]
# In suspension culture, EBs are formed in ultra low attachment plates in SF medium over night. […] Usually, cells were cultured over a period of 12-13 days before the visual analysis of the proportion of beating EBs under a microscope was performed followed by cell collection for additional readouts. Multiple beating areas on single EBs were not counted separately. Values are expressed as a percentage of contracting EBs compared to […] in a single well of a 6-well tray. […] An average value per well was calculated and presented.
molecule,measurement,value
B1,CM induction activity (number of beating areas),enhance CM induction activity
